Reference: patent US9878045B2, “Triorthogonal reagents for dual protein conjugation” (REGENTS OF THE UNIVERSITY OF MINNESOTA, priority 2013, dated 2018)

B1: PFTase (Saccharomyces cerevisiae S288C) (protein)
chain 1: MRQRVGRSIARAKFINTALLGRKRPVMERVVDIAHVDSSKAIQPLMKELETDTTEARYKVLQSVLEIYDDEKNIEPALTKEFHKMYLDVAFEISLPPQMTALDASQPWMLYWIANSLKVMDRDWLSDDTKRKIVDKLFTISPSGGPFGGGPGQLSHLASTYAAINALSLCDNIDGCWDRIDRKGIYQWLISLKEPNGGFKTCLEVGEVDTRGIYCALSIATLLNILTEELTEGVLNYLKNCQNYEGGFGSCPHVDEAHGGYTFCATASLAILRSMDQINVEKLLEWSSARQLQEERGFCGRSNKLVDGCYSFWVGGSAAILEAFGYGQCFNKHALRDYILYCCQEKEQPGLRDKPGAHSDFYHTNYCLLGLAVAESSYSCTPNDSPHNIKCTPDRLIGSSKLTDVNPVYGLPIENVRKIIHYFKSNLSSPS
chain 2: MEEYDYSDVKPLPIETDLQDELCRIMYTEDYKRLMGLARALISLNELSPRALQLTAEIIDVAPAFYTIWNYRFNIVRHMMSESEDTVLYLNKELDWLDEVTLNNPKNYQIWSYRQSLLKLHPSPSFKRELPILKLMIDDDSKNYHVWSYRKWCCLFFSDFQHELAYASDLIETDIYNNSAWTHRMFYWVNAKDVISKVELADELQFIMDKIQLVPQNISPWTYLRGFQELFHDRLQWDSKVVDFATTFIGDVLSLPIGSPEDLPEIESSYALEFLAYHWGADPCTRDNAVKAYSLLAIKYDPIRKNLWHHKINNLN
notes: made in house

Key:
Assay in all cases: Continuous fluorescence-based PFTase enzyme assay, prenylation of N-dansyl-GCVIA (2)
Assay type in all cases: biochemical, Yeast
PFTase = molecular target: T1, PFTase (Saccharomyces cerevisiae, UniProt P22007+P29703)
T1 sequence (P22007 1-431): B1 chain 1
T1 sequence (P29703 1-316): B1 chain 2
Experimental: (§1) Next, a kinetic analysis of that reaction was performed using varying concentrations of 1 and N-dansyl-GCVIA (SEQ ID NO: 2) (2) in the presence of PFTase showing that the enzymatic process obeyed saturation kinetics. Steady-state kinetic parameters for the prenylation reaction using the bifunctional aldehyde-alkyne analogue are shown in FIG. 4. […] Nevertheless, despite this lower activity with 1, using elevated levels of PFTase (200 nM), it is relatively easy to drive these enzymatic reactions to completion in 2 hours.
Enzymatic reaction mixtures contained Tris.HCl (50 mM, pH 7.5), MgCl2 (10 mM), ZnCl2 (10 μM), DTT (5.0 mM), 2.4 μN-dansyl-GCVIA (SEQ ID NO: 2) (2), 0.040% (w/v) n-dodecyl-β-D-maltoside PFTase (80 nM), and varying concentrations of 1 (0-50 μM), in a final volume of 250 μL. The reaction mixtures were equilibrated at 30 ° C. for 1 min, initiated by the addition of PFTase, and monitored for an increase in fluorescence (λex=340 nm, λem=505 nm) for approximately 20 min. The initial rates of formation of products were obtained as slopes in IU/min using least squares analysis. Corrections were applied to all the rate calculations based on the difference between the fluorescence intensity of the prenylated product and the starting peptide. Assuming 100% conversion, the difference corresponds only to the fluorescence of the total amount of the product. […]

[1] = substrate: C#Cc1cc(C=O)cc(OC/C(C)=C/CC/C(C)=C/COP(=O)(O)OP(=O)(O)O)c1; conditions: other: single peptide concentration 2.4 μM; pH 7.5; 30.0 °C
Experimental: as §1
(§2) Enzymatic reaction mixtures contained Tris.HCl (50 mM, pH 7.5), MgCl2 (10 mM), ZnCl2 (10 μM), DTT (5.0 mM), 2.4 μN-dansyl-GCVIA (SEQ ID NO: 2) (2), 0.040% (w/v) n-dodecyl-β-D-maltoside PFTase (80 nM), and varying concentrations of 1 (0-50 μM), in a final volume of 250 μL. The reaction mixtures were equilibrated at 30 ° C. for 1 min, initiated by the addition of PFTase, and monitored for an increase in fluorescence (λex=340 nm, λem=505 nm) for approximately 20 min. The initial rates of formation of products were obtained as slopes in IU/min using least squares analysis. Corrections were applied to all the rate calculations based on the difference between the fluorescence intensity of the prenylated product and the starting peptide. Assuming 100% conversion, the difference corresponds only to the fluorescence of the total amount of the product. The slope was then divided by the fluorescence difference followed by multiplying by the total concentration of peptide (2.4 μM) which then gives the rate of formation of product in μM/s. It should be noted that the KM values reported here are actually apparent KM values, since the measurements were performed in only a single peptide concentration. The data were fit to a Michaelis-Menten model
(§3) [formula] using a nonlinear regression program, to determine kcat and KM (FIG. 4).

[2] = substrate: CC(C)=CCC/C(C)=C/CC/C(C)=C/CO[P@@](=O)(O)OP(=O)(O)O; conditions: other: single peptide concentration 2.4 μM; pH 7.5; 30.0 °C
Experimental: as §1, §2, §3

Molecule	kcat lower than the kcat for FPP (PFTase; compared with FPP) [fold]	substrate for the enzyme (PFTase; model peptide N-dansyl-GCVIA (2))	Km [1] [µM]	kcat [1] [s⁻¹]	Km [2] [µM]
C#Cc1cc(C=O)cc(OC/C(C)=C/CC/C(C)=C/COP(=O)(O)OP(=O)(O)O)c1 [Compound 1, (2E,6E)-8-(3-ethynyl-5-formylphenoxy)-3,7-dimethylocta-2,6-dien-1-yl diphosphate]	42	alternative substrate	–	–	–
B1	–	–	2.52	0.0123	1.71
